Experimental data published in PMC4412080.

Target: mouse anti-human CD4 IgG (BD Biosciences) (mouse)
Test: ELISA; wells coated overnight at 4°C in PBS with mouse anti-human CD4 IgG (4 μg/mL) or with BSA; blocked with 3% BSA; phage (ID1-mZ 3 × 10^8 to 1 × 10^10 PFU/mL) in 0.1% Tween, 0.1% BSA in PBS for 1 h at r.t.; detected with HRP-conjugated anti-M13 antibody and TMB; mid-point of binding estimated; multivalent display; how the phage was prepared is not told

For “ID1-mZ phage (M13KE-derived phage that displays the minimized Z-domain of protein A and a TEV recognition sequence inside pIII, in linker L1)”, the EC50 was 0.6 pM.
